Kd, binding result and IC50 data for 24 molecules are collected here from patent US20060193821, “Aptamers to the human IL-12 cytokine family and their use as autoimmune disease therapeutics” (published 2006).

The target in data set [1] is T1, IL-23 (human, p19/p40 heterodimer) (Homo sapiens, UniProt Q9NPF7;P29460 SEQ:20-189,SEQ:23-328). Briefly: filter; SHMCK, tRNA. As to conditions: tags: R&D Systems, carrier free. How it is done:
Monitoring Progress of rRfY Selection. Dot blot binding assays were performed throughout the selections to monitor the protein binding affinity of the pools. Trace ³²P-labeled RNA was combined with a dilution series of h-IL-23 and incubated at room temperature for 30 minutes in 1×SHMCK (20 mM Hepes, 120 mM NaCl, 5 mM KCl, 1 mM MgCl₂, 1 mM CaCl₂, pH 7.4) plus 0.1 mg/mL tRNA for a final volume of 20 μL. The binding reactions were analyzed by nitrocellulose filtration using a Minifold I dot-blot, 96-well vacuum filtration manifold (Schleicher & Schuell, Keene, N.H.). A three-layer filtration medium was used, consisting (from top to bottom) of Protran nitrocellulose (Schleicher & Schuell), Hybond-P nylon (Amersham Biosciences) and GB002 gel blot paper (Schleicher & Schuell). RNA that is bound to protein is captured on the nitrocellulose filter, whereas the non-protein bound RNA is captured on the nylon filter. The gel blot paper was included simply as a supporting medium for the other filters. Following filtration, the filter layers were separated, dried and exposed on a phosphor screen (Amersham Biosciences, Piscataway, N.J.) and quantified using a Storm 860 Phosphorimager® blot imaging system (Amersham Biosciences).
When a significant positive ratio of binding of RNA in the presence of h-IL-23 versus in the absence of h-IL-23 was seen, the pools were cloned using a TOPO TA cloning kit (Invitrogen, Carlsbad, Calif.) according to the manufacturer's instructions. For the h-IL-23 and X-IL-23 selections, the Round 8 pool templates were cloned, and 32 individual clones from each selections were assayed in a 1-point dot blot screen (+/−75 nM h-IL-23, as well as a separate screen at +/−75 nM h-IL-12). For the PN-IL-23 selection, the Round 10 pool was cloned and sequenced, and 8 unique clones were assayed for protein binding in a 1-point dot blot screen (+/−200 nM h-IL-23 and a separate screen at +/−200 nM h-IL-12). Subsequently, the Round 10 PN-IL-23 pool was re-cloned for further sequences, as well as the R12 PN-IL-23 pool, and the clones were assayed for protein binding in a 1 point do blot screen (+/−100 nM h-IL-23 or +/−200 nM h-IL-12).

Data set [2] addresses IL-12 (human, p35/p40 heterodimer) (Homo sapiens, UniProt P29459;P29460 SEQ:57-253,SEQ:23-328). Briefly: filter; no significant binding.
Data set [3] has as its target T1, IL-23 (human, p19/p40 heterodimer). Briefly: cell_activity; TransAM STAT3. The following applies: tags: R&D Systems, carrier free. The protocol:
In summary, the cell-based assay was conducted by isolating the peripheral blood mononuclear cells (PBMCs) from whole blood using a Histopaque gradient (Sigma, St. Louis, Mo.). The PBMCs were cultured for 3 to 5 days at 37° C./5% CO₂ in Peripheral Blood Medium (Sigma) which contains PHA, supplemented with IL-2 (100 units/mL) (R&D Systems, Minneapolis, Minn.), to generate PHA Blasts. To test IL-23 aptamers, the PHA Blasts were washed twice with 1×PBS, then serum starved for four hours in RPMI, 0.20% FBS. After serum starvation, approximately 2 million cells were aliquotted into appropriately labeled eppendorf tubes. hIL-23 at a final constant concentration of 3 ng/mL (R&D Systems, Minneapolis, Minn.) was combined with a dilution series of various IL-23 aptamers as described in Example 1, and the cytokine/aptamer mixture was added to the aliquotted cells in a final volume of 100 μl and incubated at 37° C. for 10-12 minutes. The incubation reaction was stopped by adding 1 mL of ice-cold PBS with 1.5 mM Na₃VO₄. Cell lysates were made using the lysis buffer provided by the TransAM™ STAT 3 assay following the manufacturer's instructions. FIG. 20 depicts a flow summary of the protocol used for the cell based assay.
Full length clones from the rRfY selection described in Example 1A, and select minimized rRfY clones that were described in Example 2A. 1, were tested using the TransAM™ STAT3 activation assay. Table 34 summarizes the cell based assay data for IL-23 full length aptamers generated from the rRfY selections described in Example 1A. 1, each compared to the activity of their respective parent (full length) clone.

T1 sequence (Q9NPF7 20-189, chain 1 of 2): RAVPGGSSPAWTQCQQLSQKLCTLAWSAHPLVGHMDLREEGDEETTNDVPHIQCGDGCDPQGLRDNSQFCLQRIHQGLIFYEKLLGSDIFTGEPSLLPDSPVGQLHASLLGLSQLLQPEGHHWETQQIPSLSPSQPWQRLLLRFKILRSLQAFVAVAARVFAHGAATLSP
T1 sequence (P29460 23-328, chain 2 of 2): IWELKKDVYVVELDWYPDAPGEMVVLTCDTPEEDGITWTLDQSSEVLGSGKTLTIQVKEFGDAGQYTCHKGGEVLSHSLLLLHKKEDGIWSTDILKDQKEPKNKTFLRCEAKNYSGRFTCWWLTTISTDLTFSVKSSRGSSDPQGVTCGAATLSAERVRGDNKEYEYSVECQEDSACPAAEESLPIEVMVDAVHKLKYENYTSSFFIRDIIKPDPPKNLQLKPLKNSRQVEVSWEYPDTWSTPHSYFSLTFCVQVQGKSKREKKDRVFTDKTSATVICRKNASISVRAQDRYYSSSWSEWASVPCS
Sequence of IL-12 (human, p35/p40 heterodimer) (P29459 23-219, chain 1 of 2): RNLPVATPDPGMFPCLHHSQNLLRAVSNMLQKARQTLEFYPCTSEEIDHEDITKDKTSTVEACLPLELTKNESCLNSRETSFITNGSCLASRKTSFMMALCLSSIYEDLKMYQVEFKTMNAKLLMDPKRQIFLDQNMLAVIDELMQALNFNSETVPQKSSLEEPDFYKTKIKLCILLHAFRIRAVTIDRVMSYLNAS
Sequence of IL-12 (human, p35/p40 heterodimer) (P29460 23-328, chain 2 of 2): as the sequence (P29460 23-328, chain 2 of 2) above

B1: AMX86-H7 (ssRNA)
RNA: GGGAAAAGCGAAUCAUACACAAGAGAUGACUACACGCCAGUGUGCGCUUUUUGCGGAGUUAGCGGCUCCGCCAGAGACCAACCGAGAA
modifications: 2'-F C,U
On to B1, for which, in data set [1], the Kd (commonly the free concentration of one partner at which half of the binding sites on the other are occupied at equilibrium, for simple one-to-one binding) turned out to be 0.0898 µM. Further, the binding result in data set [2] is on record as “no binding”.

B2: AMX86-A9 (ssRNA)
RNA: GGGAAAAGCGAAUCAUACACAAGAUCUACGAUUGUUCAGGUUUUUUGUACUCAACUAAAGGCGAGCUCCGCCAGAGACCAACCGAGAA
modifications: 2'-F C,U
Molecule B2 gave a Kd in data set [1] of 0.191 µM. For the same molecule, the binding result in data set [2] is given as “no binding”.

B3: AMX84-E12 (ssRNA)
RNA: GGGAAAAGCGAAUCAUACACAAGAAGUUUUUGUGCUCUGAGUACUCAGCGUCCGUAAGGGAUAUGCUCCGCCAGAGACCAACCGAGAA
modifications: 2'-F C,U
Regarding B3, the Kd in data set [1] stood at 0.0278 µM. Moreover, in data set [2], the binding result is on record as “no binding”.

B4: AMX86-B5 (ssRNA)
RNA: GGGAAAAGCGAAUCAUACACAAGAUUAGUGCGUGUGUUGAAAGGGCUCAUAAUGUCAGUAUCGAGCUCCGCCAGAGACCAACCGAGAA
modifications: 2'-F C,U
For B4, binding in data set [1] was put at a Kd of 0.196 µM. For the same molecule, in data set [2], the binding result is “no binding”.

B5: AMX91-F11 (ssRNA)
RNA: GGGAAAAGCGAAUCAUACACAAGACGCGUCAGGUCCACGCUGAAAUUUAUUUUCGGCAGUGUAAGCUCCGCCAGAGACCAACCGAGAA
modifications: 2'-F C,U
For the molecule B5, in data set [1], the Kd came out at 0.202 µM. Also, in data set [2], the binding result was “no binding”.

B6: AMX86-C8 (ssRNA)
RNA: GGGAAAAGCGAAUCAUACACAAGAGUCGUGAUGAUUUGGGUUAUGUCAGUUCCCUGUAUGGUUUCGCUCCGCCAGAGACCAACCGAGAA
modifications: 2'-F C,U
B6 showed a Kd in data set [1] of 0.107 µM. Also, the binding result in data set [2] is “no binding”.

B7: AMX84-A11 (ssRNA)
RNA: GGGAAAAGCGAAUCAUACACAAGAGAGGUAUGUGGUUUUGCGGAGCAACUCGUGUCAGCGGUCAGCUCCGCCAGAGACCAACCGAGAA
modifications: 2'-F C,U
As for B7, binding in data set [1] was put at a Kd of 0.0178 µM. The binding result in data set [2] is “no binding”.
Regarding GGAGUACGCCGAAAGGCGCUUCCGAAAGGACGUCCGUAAGGGAUACUCC (ssRNA, 2'-F C,U) [Type 1.5], the IC50 (in general, the concentration that gives 50% inhibition) in data set [3] worked out at 0.08 µM.

B8: A10.min5 (ssRNA)
RNA: GGAGCAUACACAAGAAGUUUUUUGUGCUCUGAGUACUCAGCGUCCGUAAGGGAUAUGCUCC
modifications: 2'-F C,U
For B8, the IC50 in data set [3] is 0.3 µM.

B9: AMX91-A6 (ssRNA)
RNA: GGGAAAAGCGAAUCAUACACAAGAUUGGCAAUGUGACCUUCAACCCUUUUCCCGAUGAACAGUGGCUCCGCCAGAGACCAACCGAGAA
modifications: 2'-F C,U
With B9, the Kd in data set [1] was 0.0603 µM. Besides, the binding result in data set [2] is recorded as “no binding”.

B10: AMX86-C7 (ssRNA)
RNA: GGGAAAAGCGAAUCAUACACAAGAUGCGCUAUGUUUGGCUGGGAAUUGUAGCAUUGCUCAAGUGGCUCCGCCAGAGACCAACCGAGAA
modifications: 2'-F C,U
In data set [1], B10 yielded a Kd of 0.14 µM. Further, in data set [2], the binding result is reported as “no binding”.

B11: AMX91-G1 (ssRNA)
RNA: GGGAAAAGCGAAUCAUACACAAGAUAUGUGCCUGGGAUGGACGACAUCCCCUGUCUAAGGAUAUGCUCCGCCAGAGACCAACCGAGAA
modifications: 2'-F C,U
For the molecule B11, binding in data set [1] was put at a Kd of 0.0823 µM. Moreover, in data set [2], the binding result was “no binding”.

B12: AMX91-H12 (ssRNA)
RNA: GGGAAAAGCGAAUCAUACACAAGACGUGUGCUUUAUGUAAACCAUAACGUUCCAUAAGGAAUAUGCUCCGCCAGAGACCAACCGAGAA
modifications: 2'-F C,U
As to B12, the Kd in data set [1] was determined as 0.0608 µM. In addition, the binding result in data set [2] is given as “no binding”.

B13: AMX84-F11 (ssRNA)
RNA: GGGAAAAGCGAAUCAUACACAAGAUGUGCUUGAGUUAAAUCUCAUCGUCCCCGUUUGGGGAUAUGCUCCGCCAGAGACCAACCGAGAA
modifications: 2'-F C,U
Molecule B13 gave an IC50 in data set [3] of 0.25 µM.

B14: B10.min4 (ssRNA)
RNA: GGAGCAUACACAAGAAGUGCUUCAUGCGGCAAACUGCAUGACGUCGAAUAGAUAUGCUCC
modifications: 2'-F C,U
As for B14, 0.5 µM corresponded to half-maximal inhibition in data set [3] (IC50).

B15: AMX86-F6 (ssRNA)
RNA: GGGAAAAGCGAAUCAUACACAAGAAUGUAUACAAUGCCCUAUCGUCAGUUAGGCAUGUGUGGAUGCUCCGCCAGAGACCAACCGAGAA
modifications: 2'-F C,U
For the molecule B15, binding in data set [1] was characterised by a dissociation constant (Kd) of 0.0691 µM. Also, the binding result in data set [2] is “no binding”.

B16: AMX91-B5 (ssRNA)
RNA: GGGAAAAGCGAAUCAUACACAAGACAGUGUAUGAGGAAGAUUACUUCCAUUCCUGAGCGGUUUUCGCUCCGCCAGAGACCAACCGAGAA
modifications: 2'-F C,U
Consider B16, for which binding in data set [1] was put at a Kd of 0.148 µM. Also, in data set [2], the binding result is “no binding”.

B17: AMX84-C10 (ssRNA)
RNA: GGGAAAAGCGAAUCAUACACAAGAGAUGUAUUCAGGCGGUCCGCAUUGAUGUCAGUUAUGCGUAGCUCCGCCAGAGACCAACCGAGAA
modifications: 2'-F C,U
Consider B17, for which, in data set [3], the IC50 turned out to be 0.25 µM. In data set [1], binding was put at a Kd of 0.0943 µM. Moreover, in data set [2], the binding result is given as “no binding”.

B18: AMX86-D8 (ssRNA)
RNA: GGGAAAAGCGAAUCAUACACAAGACAGAGGCAAUGAGAGCCUGGCGAUGUCAGUCGCAUCUUGCUGCUCCGCCAGAGACCAACCGAGAA
modifications: 2'-F C,U
B18 returned a Kd in data set [1] of 0.294 µM. Further, the binding result in data set [2] is given as “no binding”.

B19: F11.min2 (ssRNA)
RNA: GGACAUACACAAGAUGUGCUUGAGUUAAAUCUCAUCGUCCCCGUUUGGGGAUAUGUC
modifications: 2'-F C,U
B19: in data set [3], half-maximal inhibition (IC50) was put at 0.025 µM.

B20: AMX86-E6 (ssRNA)
RNA: GGGAAAAGCGAAUCAUACACAAGAUCGCAAAAGGAGUUUGUCUCUGCUCUCGGAGUGUGUCAGUGCUCCGCCAGAGACCAACCGAGAA
modifications: 2'-F C,U
For the molecule B20, the affinity in data set [1], expressed as Kd, was 0.0513 µM. For the same molecule, in data set [2], the binding result is “no binding”.

B21: AMX86-G9 (ssRNA)
RNA: GGGAAAAGCGAAUCAUACACAAGAUCCCAGCGGUACGUGAGUCUGUUAAAGGCCACCUAAUGUCGCUCCGCCAGAGACCAACCGAGAA
modifications: 2'-F C,U
For the molecule B21, the Kd in data set [1] came out at 0.109 µM. Besides, the binding result in data set [2] was “no binding”.

B22: AMX91-E3 (ssRNA)
RNA: GGGAAAAGCGAAUCAUACACAAGAUUACUCCGUUAGUGUCAGUUGACGGAGGGAGCGUACUAUUGCUCCGCCAGAGACCAACCGAGAA
modifications: 2'-F C,U
On to B22, for which, in data set [1], the Kd worked out at 0.205 µM. For the same molecule, the binding result in data set [2] was “no binding”.

B23: AMX91-G11 (ssRNA)
RNA: GGGAAAAGCGAAUCAUACACAAGACUUAACAGUGCGGGGCGCAGUGUAUAGAUCCGCAAUGUGUGCUCCGCCAGAGACCAACCGAGAA
modifications: 2'-F C,U
In turn, B23 registered a Kd in data set [1] of 0.104 µM. Also, in data set [2], the binding result was “no binding”.
